Consider 8 sequences from the supplement of paper PMC11246515.

± gives the standard deviation of the averaged measurements.

A short description of this series: total protein half-life in vivo (active degradation + dilution); higher = more stable protein.
[1] abbreviates: E. coli NCM3722 delta-clpP delta-lon delta-hslV, growth: N-lim chemostat, doubling time 6 h.
Where [2] appears, read: E. coli NCM3722 delta-hslV, growth: N-lim chemostat, doubling time 6 h.
Setting [3] is: E. coli NCM3722 delta-lon, growth: N-lim chemostat, doubling time 6 h.
Where [4] appears, read: E. coli NCM3722 delta-smpB, growth: N-lim chemostat, doubling time 6 h.
Where [5] appears, read: wild type E. coli NCM3722, growth: C-lim chemostat, doubling time 3 h.
The mark [6] stands for this setting: wild type E. coli NCM3722, growth: C-lim chemostat, doubling time 6 h.
Where [7] appears, read: wild type E. coli NCM3722, growth: C-lim chemostat, doubling time 12 h.
[8] abbreviates: wild type E. coli NCM3722, growth: N-lim chemostat, doubling time 6 h.
Setting [9] is: wild type E. coli NCM3722, growth: N-lim chemostat, doubling time 12 h.
Where [10] appears, read: wild type E. coli NCM3722, growth: P-lim chemostat, doubling time 6 h.
Setting [11] is: wild type E. coli NCM3722, growth: P-lim chemostat, doubling time 12 h.
[12] abbreviates: E. coli NCM3722 delta-clpP, growth: N-lim chemostat, doubling time 6 h.

Turning to “MSQFFYIHPDNPQQRLINQAVEIVRKGGVIVYPTDSGYALGCKIEDKNAMERICRIRQLPDGHNFTLMCRDLSELSTYSFVDNVAFRLMKNNTPGNYTFILKGTKEVPRRLLQEKRKTIGMRVPSNPIAQALLEALGEPMLSTSLMLPGSEFTESDPEEIKDRLEKQVDLIIHGGYLGQKPTTVIDLTDDTPVVVREGVGDVKPFL [P0AFR4]”, the “total protein half-life in vivo” value is, setting by setting: under setting [1], 5.38 ± 0.1 h; under setting [2], 6.202 ± 0.062 h; under setting [3], 6.96 ± 1.2 h; under setting [4], 6.51 ± 0.8 h; under setting [5], 3.1 ± 0.11 h; under setting [6], 6.18 ± 1.4 h. In addition, the “total protein half-life in vivo” value reads like this: under setting [7], 12.2 ± 1.1 h; under setting [8], 5.38 ± 0.017 h; under setting [9], 14.4 ± 1.2 h; under setting [10], 4.64 ± 0.17 h; under setting [11], 12.9 ± 1.6 h.
As to “MANPEQLEEQREETRLIIEELLEDGSDPDALYTIEHHLSADDLETLEKAAVEAFKLGYEVTDPEELEVEDGDIVICCDILSECALNADLIDAQVEQLMTLAEKFDVEYDGWGTYFEDPNGEDGDDEDFVDEDDDGVRH [P0AF90]”, the “total protein half-life in vivo” value worked out at 5.62 ± 0.39 h under setting [1]; 4 ± 0.52 h under setting [12]; 3.94 ± 0.18 h under setting [2]; 5.36 ± 0.26 h under setting [3]; 3.73 ± 0.12 h under setting [4]; 2.08 h under setting [5]. In addition, the “total protein half-life in vivo” value is, setting by setting: under setting [6], 5.51 ± 1.6 h; under setting [7], 8.63 ± 2.2 h; under setting [8], 4.14 h; under setting [9], 7.72 ± 1.9 h; under setting [10], 2.61 ± 0.039 h; under setting [11], 6.57 ± 0.075 h.
With “METYAVFGNPIAHSKSPFIHQQFAQQLNIEHPYGRVLAPINDFINTLNAFFSAGGKGANVTVPFKEEAFARADELTERAALAGAVNTLMRLEDGRLLGDNTDGVGLLSDLERLSFIRPGLRILLIGAGGASRGVLLPLLSLDCAVTITNRTVSRAEELAKLFAHTGSIQALSMDELEGHEFDLIINATSSGISGDIPAIPSSLIHPGIYCYDMFYQKGKTPFLAWCEQRGSKRNADGLGMLVAQAAHAFLLWHGVLPDVEPVIKQLQEELSA”, the “total protein half-life in vivo” value under setting [1] was 4 ± 0.39 h; the “total protein half-life in vivo” value under setting [12] was 4.39 ± 0.89 h; the “total protein half-life in vivo” value under setting [2] was determined as 4.03 ± 0.27 h; the “total protein half-life in vivo” value under setting [3] is 6.18 ± 2.5 h; the “total protein half-life in vivo” value under setting [4] was determined as 3.9 ± 0.14 h; the “total protein half-life in vivo” value under setting [5] was found to be 2.4 ± 0.59 h. The “total protein half-life in vivo” value was found to be 5.428 ± 0.014 h under setting [6]; 8.94 ± 2.3 h under setting [7]; 4.16 ± 0.36 h under setting [8]; 6.95 ± 0.015 h under setting [9]; 6.01 ± 0.18 h under setting [10]; 11.7 ± 1.5 h under setting [11].
Regarding “MSVPLILTILAGAATFIGAFLGVLGQKPSNRLLAFSLGFAAGIMLLISLMEMLPAALAAEGMSPVLGYGMFIFGLLGYFGLDRMLPHAHPQDLMQKSVQPLPKSIKRTAILLTLGISLHNFPEGIATFVTASSNLELGFGIALAVALHNIPEGLAVAGPVYAATGSKRTAILWAGISGLAEILGGVLAWLILGSMISPVVMAAIMAAVAGIMVALSVDELMPLAKEIDPNNNPSYGVLCGMSVMGFSLVLLQTAGIG [P0A8H3]”, the “total protein half-life in vivo” value was 1.91 h under setting [1]; 1.38 h under setting [12]; 1.59 ± 0.2 h under setting [2]; 2.14 ± 0.3 h under setting [3]; 1.65 ± 0.083 h under setting [4]; 0.41 h under setting [5]. Further, the “total protein half-life in vivo” value reads like this: under setting [6], 0.83 h; under setting [8], 1.7 h; under setting [9], 2.45 h.
With “MLKSPLFWKMTSLFGAVLLLLIPIMLIRQVIVERADYRSDVEDAIRQSTSGPQKLVGPLIAIPVTELYTVQEEDKTVERKRSFIHFWLPESLMVDGNQNVEERKIGIYTGQVWHSDLTLKADFDVSRLSELNAPNITLGKPFIVISVGDARGIGVVKAPEVNGTALTIEPGTGLEQGGQGVHIPLPEGDWRKQNLKLNMALNLSGTGDLSVVPGGRNSEMTLTSNWPHPSFLGDFLPAKREVSESGFQAHWQSSWFANNLGERFASGNDTGWENFPAFSVAVTTPADQYQLTDRATKYAILLIALTFMAFFVFETLTAQRLHPMQYLLVGLSLVMFYLLLLALSEHTGFTVAWIIASLIGAIMNGIYLQAVLKGWCNSMLFTLALLLLDGVMWGLLNSADSALLLGTSVLVVALAGMMFVTRNIDWYAFSLPKMKASKEVTTDDELRIWK”, the “total protein half-life in vivo” value was found to be 1.65 h under setting [9], 3.18 ± 0.29 h under setting [10] and 5.81 ± 0.98 h under setting [11].
On to “MHVTLVEINVHEDKVDEFIEVFRQNHLGSVQEEGNLRFDVLQDPEVNSRFYIYEAYKDEDAVAFHKTTPHYKTCVAKLESLMTGPRKKRLFNGLMP”, for which the “total protein half-life in vivo” value was 4.55 ± 0.72 h under setting [1]; 2.71 h under setting [12]; more than 8 h under setting [2]; 3 ± 0.2 h under setting [3]; 2.49 ± 0.49 h under setting [5]; 3.66 ± 0.24 h under setting [6]. The “total protein half-life in vivo” value is, setting by setting: under setting [7], 3.93 ± 0.26 h; under setting [8], 2.69 h; under setting [9], 4.86 h.
“MQSERIYLVWAHPRHDSLTAHIADAIHQRAMERKIQVTELDLYRRNFNPVMTPEDEPDWKNMDKRYSPEVHQLYSELLEHDTLVVVFPLWWYSFPAMLKGYIDRVWNNGLAYGDGHKLPFNKVRWVALVGGDKESFVQMGWEKNISDYLKNMCSYLGIEDADVTFLCNTVVFDGEELHASYYQSLLSQVRDMVDAL”: the “total protein half-life in vivo” value runs as follows: under setting [12], 4.52 ± 0.47 h; under setting [2], 4 h; under setting [3], 4.84 ± 0.22 h; under setting [4], 4.07 ± 0.28 h; under setting [5], 2.98 ± 0.16 h; under setting [6], 6.87 ± 1.5 h. In addition, the “total protein half-life in vivo” value was determined as 9.75 ± 0.92 h under setting [7]; 4.62 ± 0.12 h under setting [8]; 7.48 ± 1 h under setting [9]; 5.643 ± 0.052 h under setting [10]; 11.5 ± 1.1 h under setting [11].
As for “MFDNLTDRLSRTLRNISGRGRLTEDNVKDTLREVRMALLEADVALPVVREFINRVKEKAVGHEVNKSLTPGQEFVKIVRNELVAAMGEENQTLNLAAQPPAVVLMAGLQGAGKTTSVGKLGKFLREKHKKKVLVVSADVYRPAAIKQLETLAEQVGVDFFPSDVGQKPVDIVNAALKEAKLKFYDVLLVDTAGRLHVDEAMMDEIKQVHASINPVETLFVVDAMTGQDAANTAKAFNEALPLTGVVLTKVDGDARGGAALSIRHITGKPIKFLGVGEKTEALEPFHPDRIASRILGMGDVLSLIEDIESKVDRAQAEKLASKLKKGDGFDLNDFLEQLRQMKNMGGMASLMGKLPGMGQIPDNVKSQMDDKVLVRMEAIINSMTMKERAKPEIIKGSRKRRIAAGCGMQVQDVNRLLKQFDDMQRMMKKMKKGGMAKMMRSMKGMMPPGFPGR [P0AGD7]”, the “total protein half-life in vivo” value under setting [1] was determined as 5.51 ± 0.064 h; the “total protein half-life in vivo” value under setting [12] worked out at 5.31 ± 0.54 h; the “total protein half-life in vivo” value under setting [2] is 4.4 ± 0.073 h; the “total protein half-life in vivo” value under setting [3] amounted to 5.49 ± 0.42 h; the “total protein half-life in vivo” value under setting [4] came out at 4.58 ± 0.087 h; the “total protein half-life in vivo” value under setting [5] was determined as 2.85 ± 0.033 h. Also, the “total protein half-life in vivo” value is, setting by setting: under setting [6], 4.898 ± 0.04 h; under setting [7], 8.739 ± 0.073 h; under setting [8], 4.28 ± 0.099 h; under setting [9], 7.9 ± 0.14 h; under setting [10], 4.6 ± 0.13 h; under setting [11], 9.883 ± 0.071 h.
